The record followed here is paper PMC7298706 (mBio, 2020).

Holding throughout (test): ELISA
Common to all, as to conditions: both partners purified
In general terms: An ELISA detects its analyte on a solid surface through an enzyme-linked reagent.

The target in one assay is T1, HlgA (Staphylococcus aureus, strain not told, UniProt P0A074).
T1 construct: source: purified recombinant

Another assay has as its target T2, HlgB (Staphylococcus aureus, strain not told, UniProt P0A077).
T2 construct: source: purified recombinant

For assay [1], the target named is T3, γ-hemolysin subunit HlgC, recombinant holoprotein (Staphylococcus aureus, strain not told, UniProt Q07227).
T3 construct: source: purified recombinant

Assay [2] addresses T4, LukS, S subunit of the Panton-Valentine leukocidin (LukSF), recombinant holoprotein (Staphylococcus aureus, strain not …, UniProt O80066).
T4 construct: source: purified recombinant

A further assay has as its target T5, LukD (Staphylococcus aureus, strain , UniProt O54082).
T5 construct: source: purified recombinant

Another assay deals with T6, LukE (Staphylococcus aureus, strain , UniProt O54081).
T6 construct: source: purified recombinant

B1: anti-HlgC2 MAb (antibody, V domains shown)
VH: QVQLKESGPGLVAPSQSLSITCTVSGFSLTNFAVHWVRQPRGKGLEWLGSIWADGRTIYSALMSRLSISKDNSKSQVFLNMNSLQTDDTAMYYCATPFYFGYDGGYAMDHWGQGTSVTVSS
VL: DVLMTQTPLSLPVSLGDQASISCRSSQSIVHGSGNTYLEWYLQKPGQSPKLLIYKVSNRLSGVPDRISGSGSGTDFTLKINRVEAEDLGVYYCFQGSHVPYTFGGGTKLEMK
notes: also called anti-HIgC2 MAb; source: murine B-cell hybridoma (BALB/c mice immunized with recombinant HlgC)
Take B1: the binding result with HlgA is recorded as “no binding (tested: MAb at 2 μg/ml)”; in the assay with HlgB it was “no binding (tested: MAb at 2 μg/ml)”; in assay [1] it was “binds”; in assay [2], “binds”; in the assay with LukD, “no binding (tested: MAb at 2 μg/ml)”; in the assay with LukE, “no binding (tested: MAb at 2 μg/ml)”.

B2: anti-HlgC1 MAb (antibody, V domains shown)
VH: QVQLLQSGAELVKPGASVQLSCKASGFTFTKHDINWVRQRPEQGLEWIGWIFPGDGNTKYNEKFKGKATLTTDKSSSTAYMQLNGLTSEDSAVYFCAKEIFYWGQGTSVTVSS
VL: DIVMTQSPSSLTVTAGEKVTMSCKSSQSLLNSENQRNYLTWYQQKPGQPPKLLISWASTRESGVPDRFTGSGSGTDFTLTISSVQAEDLAVYYCQNDFSYPLTFGAGTKLELR
notes: also called anti-HIgC1 MAb; source: murine B-cell hybridoma (BALB/c mice immunized with recombinant HlgC)
Regarding B2, the binding result with HlgA is “no binding (tested: MAb at 2 μg/ml)”; in the assay with HlgB, “no binding (tested: MAb at 2 μg/ml)”; in assay [1], “binds”; in assay [2] it was “binds”; with LukD, “no binding (tested: MAb at 2 μg/ml)”; with LukE, “no binding (tested: MAb at 2 μg/ml)”.

B3: anti-HlgC3 MAb (antibody, V domains shown)
VH: QVQLLQSGAELVKPGASVQLSCKASGFTFTKYDINWVRQRPDQGLEWIGWIFPGDGNTKYNDKFKGKVILTTDKSSSTAYMQLSRLTSEDSAVYFCAREIFYWGQGTSVTVSA
VL: DIVMTQSPSSLTVTAGEKVTMSCKSSQSLFNSENQRNYLTWYQQKPRQPPKLLISWASTRESEVPDRFTGSGSGTDFTLTISSVQAEDLAVYYCQNDYSYPLTFGAGTKLELR
notes: also called anti-HIgC3 MAb; source: murine B-cell hybridoma (BALB/c mice immunized with recombinant HlgC)
B3: the binding result with HlgA was “no binding (tested: MAb at 2 μg/ml)”; in the assay with HlgB, “no binding (tested: MAb at 2 μg/ml)”; in assay [1], “binds”; in assay [2], “binds”; with LukD it was “no binding (tested: MAb at 2 μg/ml)”; with LukE it was “no binding (tested: MAb at 2 μg/ml)”.

B4: anti-HlgC4 MAb (antibody, V domains shown)
VH: QVQLLQSGAELVKPGASVQLSCKASGFTFTKYDINWVRQRPDQGLEWIGWIFPGDGNTKYNDKFKGKVILTTDKSSSTAYMQLTRLTSEDSAVYFCAREIFYWGQGTSVTVSS
VL: DIVMTQSPSSLTVTAGEKVTMSCKSSQSLLNSENQRNYLTWYQQKPGQPPKLLISWASTRESGVPDRFTGSGSGTDFTLTISSVQAEDLAVYYCQNDYSYPLTFGAGTKLELR
notes: also called anti-HIgC4 MAb; source: murine B-cell hybridoma (BALB/c mice immunized with recombinant HlgC)
As to B4, the binding result with HlgA is given as “no binding (tested: MAb at 2 μg/ml)”; with HlgB it was “no binding (tested: MAb at 2 μg/ml)”; in assay [1], “binds”; in assay [2] it was “binds”; in the assay with LukD, “no binding (tested: MAb at 2 μg/ml)”; with LukE, “no binding (tested: MAb at 2 μg/ml)”.
